The results in this text go back to PMC7565527, “Cryo-EM Structure of Heterologous Protein Complex Loaded Thermotoga Maritima Encapsulin Capsid” (Biomolecules, 2020).

This data set deals with the molecule itself. Briefly: cryo-EM structure; Encap/IDM complex coexpressed in insect cells, purified by Ni-NTA and Superdex 200; icosahedral reconstruction of the encapsulin shell at 2.87 Å, C1 reconstruction at 4.29 Å.

B1: Thermotoga maritima encapsulin capsid protein, C-terminus His-tagged (natural protein)
chain: MEFLKRSFAPLTEKQWQEIDNRAREIFKTQLYGRKFVDVEGPYGWEYAAHPLGEVEVLSDENEVVKWGLRKSLPLIELRATFTLDLWELDNLERGKPNVDLSSLEETVRKVAEFEDEVIFRGCEKSGVKGLLSFEERKIECGSTPKDLLEAIVRALSIFSKDGIEGPYTLVINTDRWINFLKEEAGHYPLEKRVEECLRGGKIITTPRIEDALVVSERGGDFKLILGQDLSIGYEDREKDAVRLFITETFTFQVVNPEALILLKF
notes: T. maritima encapsulin capsid protein; gene amplified from pET14-GFP30-Encap (Addgene #86406); model built from PDB 3DKT; Assembles into an icosahedral shell with 12 fivefold pores; its symmetry expansion ('the other expanded 59 sets') implies 60; also called encapsulin shell; source: insect cells (baculovirus, pFastBac1), coexpressed with cargo, purified (Ni-NTA, Superdex 200); not shown: His …
With B1, the binding result is listed as “binds”.
